# Starred links: 1 amine or outer side, 2 acyl side, 3 side chain; linkers in the order of their positions; H or OH if unused. Positions of bridges follow the written chain, without caps; N, C: chain ends. Primed or numbered codes have the meaning given here. *: point of attachment. C18 diacid′ = 17-carboxyheptadecanoyl on γGlu amine: (S)-4-carboxy-4-(17-carboxyheptadecanoylamino)butyryl; C20 diacid = O=C(O)CCCCCCCCCCCCCCCCCCC(=O)*; C18 diacid = O=C(O)CCCCCCCCCCCCCCCCC(=O)*; γGlu = O=C(O)[C@H](CCC(=O)[*:2])N[*:1]
# T1: rat amylin 3(a) receptor (rat calcitonin(a) receptor + rat RAMP3) (rat, UniProt P32214 25-516; Q9JJ73 23-147)
# T1 sequence (looked up) 1: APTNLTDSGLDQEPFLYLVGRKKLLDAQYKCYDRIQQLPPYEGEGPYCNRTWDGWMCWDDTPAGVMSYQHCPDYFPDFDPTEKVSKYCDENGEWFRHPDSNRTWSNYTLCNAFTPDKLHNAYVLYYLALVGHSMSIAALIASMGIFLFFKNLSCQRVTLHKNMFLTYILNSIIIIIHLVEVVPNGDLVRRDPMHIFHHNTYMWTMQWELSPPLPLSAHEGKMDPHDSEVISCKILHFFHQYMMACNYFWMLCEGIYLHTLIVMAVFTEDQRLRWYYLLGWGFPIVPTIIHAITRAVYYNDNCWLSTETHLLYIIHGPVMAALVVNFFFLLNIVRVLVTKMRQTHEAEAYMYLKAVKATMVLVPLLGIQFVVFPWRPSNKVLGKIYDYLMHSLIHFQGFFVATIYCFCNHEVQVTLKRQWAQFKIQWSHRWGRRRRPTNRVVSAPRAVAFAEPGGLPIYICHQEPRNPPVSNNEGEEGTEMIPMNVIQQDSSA
# T1 sequence (looked up) 2: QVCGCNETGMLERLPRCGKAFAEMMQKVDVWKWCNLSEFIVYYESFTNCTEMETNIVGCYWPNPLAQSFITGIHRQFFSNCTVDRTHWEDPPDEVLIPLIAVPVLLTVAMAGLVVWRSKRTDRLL
# T2: human amylin 3(a) receptor (human calcitonin receptor + RAMP-3) (human, UniProt P30988 25-474; O60896 24-148)
# T2 sequence (looked up) 1: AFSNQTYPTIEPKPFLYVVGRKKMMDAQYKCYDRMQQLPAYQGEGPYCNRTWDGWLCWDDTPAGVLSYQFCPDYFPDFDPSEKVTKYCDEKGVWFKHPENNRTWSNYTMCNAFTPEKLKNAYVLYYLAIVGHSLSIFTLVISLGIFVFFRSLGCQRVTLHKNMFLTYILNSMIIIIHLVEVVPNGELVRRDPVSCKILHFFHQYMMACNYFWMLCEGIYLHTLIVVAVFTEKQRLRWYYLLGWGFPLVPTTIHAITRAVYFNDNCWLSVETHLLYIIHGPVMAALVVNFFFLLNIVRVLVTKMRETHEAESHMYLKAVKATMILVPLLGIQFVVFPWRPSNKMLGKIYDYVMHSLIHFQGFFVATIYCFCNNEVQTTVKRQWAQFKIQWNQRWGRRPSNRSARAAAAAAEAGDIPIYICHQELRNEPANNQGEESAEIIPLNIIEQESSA
# T2 sequence (looked up) 2: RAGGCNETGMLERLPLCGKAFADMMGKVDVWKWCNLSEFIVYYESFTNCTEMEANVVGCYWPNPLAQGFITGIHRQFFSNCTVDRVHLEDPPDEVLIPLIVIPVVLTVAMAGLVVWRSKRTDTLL
# T3: human calcitonin (a) receptor (human, UniProt P30988 25-474)
# T3 sequence (looked up): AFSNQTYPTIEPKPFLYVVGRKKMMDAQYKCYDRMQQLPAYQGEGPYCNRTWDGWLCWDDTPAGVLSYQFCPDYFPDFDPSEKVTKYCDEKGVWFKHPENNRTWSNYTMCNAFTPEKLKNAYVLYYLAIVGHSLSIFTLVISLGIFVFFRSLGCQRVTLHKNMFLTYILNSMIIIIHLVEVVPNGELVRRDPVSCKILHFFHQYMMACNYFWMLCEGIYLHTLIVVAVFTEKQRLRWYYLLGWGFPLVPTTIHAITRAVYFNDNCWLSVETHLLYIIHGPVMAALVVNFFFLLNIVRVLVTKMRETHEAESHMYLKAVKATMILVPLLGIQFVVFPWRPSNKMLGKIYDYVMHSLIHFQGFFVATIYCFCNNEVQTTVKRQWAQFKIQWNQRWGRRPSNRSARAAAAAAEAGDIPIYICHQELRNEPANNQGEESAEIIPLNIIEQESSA
# T4: rat calcitonin (a) receptor (rat, UniProt P32214 25-516)
# T4 sequence (looked up): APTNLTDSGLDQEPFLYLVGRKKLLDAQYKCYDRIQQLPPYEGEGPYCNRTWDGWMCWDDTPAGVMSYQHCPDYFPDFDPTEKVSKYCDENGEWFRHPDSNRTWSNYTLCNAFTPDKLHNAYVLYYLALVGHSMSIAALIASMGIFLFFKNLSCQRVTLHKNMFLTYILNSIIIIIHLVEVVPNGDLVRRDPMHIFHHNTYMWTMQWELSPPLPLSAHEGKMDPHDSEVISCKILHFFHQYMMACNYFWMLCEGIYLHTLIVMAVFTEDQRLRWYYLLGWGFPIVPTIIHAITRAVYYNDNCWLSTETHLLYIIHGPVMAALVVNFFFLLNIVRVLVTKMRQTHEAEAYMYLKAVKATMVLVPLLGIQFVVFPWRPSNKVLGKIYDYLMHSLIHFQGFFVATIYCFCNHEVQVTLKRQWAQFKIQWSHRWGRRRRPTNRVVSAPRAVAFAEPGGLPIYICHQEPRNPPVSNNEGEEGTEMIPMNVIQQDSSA
# What was measured:
# Test in all cases: cell-based or functional assay
# [1] = target: T1, rat amylin 3(a) receptor (rat …)
# [2] = target: T2, human amylin 3(a) receptor (human …)
# [3] = target: T3, human calcitonin (a) receptor
# [4] = target: T4, rat calcitonin (a) receptor
Binder,Amylin receptor rat EC50 [1] [nM],Amylin receptor human EC50 [2] [nM],CTa receptor human EC50 [3] [nM],CTa receptor rat EC50 [4] [nM]
"{C18 diacid′-γGlu}-EKCNTATCATQRLAEFLRHSSNNFGPILPPTNVGSHTY-NH2 (disulfide 3-8) [N-alpha-[(S)-4-Carboxy-4-(17-carboxyheptadecanoylamino)butyryl]-Glu-[Glu14,Arg17,His35]-pramlintide]",0.281,0.172,1.07,17.6
"{C18 diacid-γGlu}-KCNTATCATQRLAEFLRHSSNNFGPILPPTNVGSHTY-NH2 (disulfide 2-7; SMILES CC[C@H](C)[C@H](NC(=O)[C@@H]1CCCN1C(=O)CNC(=O)[C@H](Cc1ccccc1)NC(=O)[C@H](CC(N)=O)NC(=O)[C@H](CC(N)=O)NC(=O)[C@H](CO)NC(=O)[C@H](CO)NC(=O)[C@H](Cc1c[nH]cn1)NC(=O)[C@H](CCCNC(=N)N)NC(=O)[C@H](CC(C)C)NC(=O)[C@H](Cc1ccccc1)NC(=O)[C@H](CCC(=O)O)NC(=O)[C@H](C)NC(=O)[C@H](CC(C)C)NC(=O)[C@H](CCCNC(=N)N)NC(=O)[C@H](CCC(N)=O)NC(=O)[C@@H](NC(=O)[C@H](C)NC(=O)[C@@H]1CSSC[C@H](NC(=O)[C@H](CCCCN)NC(=O)CC[C@H](NC(=O)CCCCCCCCCCCCCCCCC(=O)O)C(=O)O)C(=O)N[C@@H](CC(N)=O)C(=O)N[C@@H]([C@@H](C)O)C(=O)N[C@@H](C)C(=O)N[C@@H]([C@@H](C)O)C(=O)N1)[C@@H](C)O)C(=O)N[C@@H](CC(C)C)C(=O)N1CCC[C@H]1C(=O)N1CCC[C@H]1C(=O)N[C@H](C(=O)N[C@@H](CC(N)=O)C(=O)N[C@H](C(=O)NCC(=O)N[C@@H](CO)C(=O)N[C@@H](Cc1c[nH]cn1)C(=O)N[C@H](C(=O)N[C@@H](Cc1ccc(O)cc1)C(N)=O)[C@@H](C)O)C(C)C)[C@@H](C)O) [N-alpha-[(S)-4-Carboxy-4-(17-carboxyheptadecanoylamino)butyryl]-[Glu14,Arg17,His35]-pramlintide]",0.038,0.0675,0.335,2.36
{C20 diacid-γGlu}-KCNTATCATQRLAEFLRHSSNNFGAPLSSTNVGSHTY-NH2 (disulfide 2-7; SMILES CC(C)C[C@H](NC(=O)[C@H](CCCNC(=N)N)NC(=O)[C@H](CCC(N)=O)NC(=O)[C@@H](NC(=O)[C@H](C)NC(=O)[C@@H]1CSSC[C@H](NC(=O)[C@H](CCCCN)NC(=O)CC[C@H](NC(=O)CCCCCCCCCCCCCCCCCCC(=O)O)C(=O)O)C(=O)N[C@@H](CC(N)=O)C(=O)N[C@@H]([C@@H](C)O)C(=O)N[C@@H](C)C(=O)N[C@@H]([C@@H](C)O)C(=O)N1)[C@@H](C)O)C(=O)N[C@@H](C)C(=O)N[C@@H](CCC(=O)O)C(=O)N[C@@H](Cc1ccccc1)C(=O)N[C@@H](CC(C)C)C(=O)N[C@@H](CCCNC(=N)N)C(=O)N[C@@H](Cc1c[nH]cn1)C(=O)N[C@@H](CO)C(=O)N[C@@H](CO)C(=O)N[C@@H](CC(N)=O)C(=O)N[C@@H](CC(N)=O)C(=O)N[C@@H](Cc1ccccc1)C(=O)NCC(=O)N[C@@H](C)C(=O)N1CCC[C@H]1C(=O)N[C@@H](CC(C)C)C(=O)N[C@@H](CO)C(=O)N[C@@H](CO)C(=O)N[C@H](C(=O)N[C@@H](CC(N)=O)C(=O)N[C@H](C(=O)NCC(=O)N[C@@H](CO)C(=O)N[C@@H](Cc1c[nH]cn1)C(=O)N[C@H](C(=O)N[C@@H](Cc1ccc(O)cc1)C(N)=O)[C@@H](C)O)C(C)C)[C@@H](C)O),1.33,0.217,0.342,5.35

# More lines, now with the values ahead:
Amylin receptor rat EC50 [1] [nM],Amylin receptor human EC50 [2] [nM],CTa receptor human EC50 [3] [nM],CTa receptor rat EC50 [4] [nM],Binder
0.023,0.056,0.0605,0.148,"{C18 diacid-γGlu}-KCNTATCATQRLAEFLHHSSNNFGPILPPTNVGSHTY-NH2 (disulfide 2-7; not fully specified; printed as N-alpha-[(S)-4-Carboxy-4-(17-carboxyheptadecanoylamino)butyryl]-[Glu14,His17,His35]-pramlintide) [N-alpha-[(S)-4-Carboxy-4-(17-carboxyheptadecanoylamino)butyryl]-[Glu14,His17,His35]-pramlintide]"
0.305,0.182,0.21,0.656,"{C20 diacid-γGlu}-HKCNTATCATQRLAEFLHHSSNNFGPILPPTNVGSHTY-NH2 (disulfide 3-8; SMILES CC[C@H](C)[C@H](NC(=O)[C@@H]1CCCN1C(=O)CNC(=O)[C@H](Cc1ccccc1)NC(=O)[C@H](CC(N)=O)NC(=O)[C@H](CC(N)=O)NC(=O)[C@H](CO)NC(=O)[C@H](CO)NC(=O)[C@H](Cc1c[nH]cn1)NC(=O)[C@H](Cc1c[nH]cn1)NC(=O)[C@H](CC(C)C)NC(=O)[C@H](Cc1ccccc1)NC(=O)[C@H](CCC(=O)O)NC(=O)[C@H](C)NC(=O)[C@H](CC(C)C)NC(=O)[C@H](CCCNC(=N)N)NC(=O)[C@H](CCC(N)=O)NC(=O)[C@@H](NC(=O)[C@H](C)NC(=O)[C@@H]1CSSC[C@H](NC(=O)[C@H](CCCCN)NC(=O)[C@H](Cc2c[nH]cn2)NC(=O)CC[C@H](NC(=O)CCCCCCCCCCCCCCCCCCC(=O)O)C(=O)O)C(=O)N[C@@H](CC(N)=O)C(=O)N[C@@H]([C@@H](C)O)C(=O)N[C@@H](C)C(=O)N[C@@H]([C@@H](C)O)C(=O)N1)[C@@H](C)O)C(=O)N[C@@H](CC(C)C)C(=O)N1CCC[C@H]1C(=O)N1CCC[C@H]1C(=O)N[C@H](C(=O)N[C@@H](CC(N)=O)C(=O)N[C@H](C(=O)NCC(=O)N[C@@H](CO)C(=O)N[C@@H](Cc1c[nH]cn1)C(=O)N[C@H](C(=O)N[C@@H](Cc1ccc(O)cc1)C(N)=O)[C@@H](C)O)C(C)C)[C@@H](C)O) [N-alpha-[(S)-4-Carboxy-4-(19-carboxynonadecanoylamino)butyryl]-His-[Glu14,His17,His35]-pramlintide]"
0.063,0.117,0.606,2.23,"{C20 diacid-γGlu}-EKCNTATCATQRLAEFLRHSSNNFGPILPPTNVGSHTY-NH2 (disulfide 3-8; SMILES CC[C@H](C)[C@H](NC(=O)[C@@H]1CCCN1C(=O)CNC(=O)[C@H](Cc1ccccc1)NC(=O)[C@H](CC(N)=O)NC(=O)[C@H](CC(N)=O)NC(=O)[C@H](CO)NC(=O)[C@H](CO)NC(=O)[C@H](Cc1c[nH]cn1)NC(=O)[C@H](CCCNC(=N)N)NC(=O)[C@H](CC(C)C)NC(=O)[C@H](Cc1ccccc1)NC(=O)[C@H](CCC(=O)O)NC(=O)[C@H](C)NC(=O)[C@H](CC(C)C)NC(=O)[C@H](CCCNC(=N)N)NC(=O)[C@H](CCC(N)=O)NC(=O)[C@@H](NC(=O)[C@H](C)NC(=O)[C@@H]1CSSC[C@H](NC(=O)[C@H](CCCCN)NC(=O)[C@H](CCC(=O)O)NC(=O)CC[C@H](NC(=O)CCCCCCCCCCCCCCCCCCC(=O)O)C(=O)O)C(=O)N[C@@H](CC(N)=O)C(=O)N[C@@H]([C@@H](C)O)C(=O)N[C@@H](C)C(=O)N[C@@H]([C@@H](C)O)C(=O)N1)[C@@H](C)O)C(=O)N[C@@H](CC(C)C)C(=O)N1CCC[C@H]1C(=O)N1CCC[C@H]1C(=O)N[C@H](C(=O)N[C@@H](CC(N)=O)C(=O)N[C@H](C(=O)NCC(=O)N[C@@H](CO)C(=O)N[C@@H](Cc1c[nH]cn1)C(=O)N[C@H](C(=O)N[C@@H](Cc1ccc(O)cc1)C(N)=O)[C@@H](C)O)C(C)C)[C@@H](C)O) [N-alpha-[(S)-4-Carboxy-4-(19-carboxynonadecanoylamino)butyryl]-Glu-[Glu14,Arg17,His35]-pramlintide]"
